Reference: patent publication US8834890B2, “Siderophore conjugate immunogenic compositions and vaccines” (University of Florida Research Foundation, Inc., priority 2009, dated 2014)

B1: OVA: unconjugated ovalbumin, control in the competitive binding ELISA (protein, UniProt P01012 2-386, looked up)
Ovalbumin: GSIGAASMEFCFDVFKELKVHHANENIFYCPIAIMSALAMVYLGAKDSTRTQINKVVRFDKLPGFGDSIEAQCGTSVNVHSSLRDILNQITKPNDVYSFSLASRLYAEERYPILPEYLQCVKELYRGGLEPINFQTAADQARELINSWVESQTNGIIRNVLQPSSVDSQTAMVLVNAIVFKGLWEKAFKDEDTQAMPFRVTEQESKPVQMMYQIGLFRVASMASEKMKILELPFASGTMSMLVLLPDEVSGLEQLESIINFEKLTEWTSSNVMEERKIKVYLPRMKMEEKYNLTSVLMAMGITDVFSSSANLSGISSAESLKISQAVHAAHAEINEAGREVVGSAEAGVDAASVSEEFRADHPFLFCIKHIATNAVLFFGRCVSP

Assays:
[1] = Iron clearance in non-iron-overloaded, bile-duct cannulated rats; assay type: in vivo, Sprague-Dawley rats; conditions: 75 μmol/kg s.c.
Protocol: To support this idea, bile duct-cannulated rats were given vibriobactin (3) subcutaneously (s.c.) at a dose of 75 μmol/kg. The rodents' bile and urine were collected for 48 h to determine if vibriobactin sequestered and promoted the excretion of iron. The iron content of the bile and urine were determined using atomic absorption spectroscopy. This model has been used for many years to evaluate the efficiency with which iron chelators promote the excretion of iron from animals [Bergeron, R. J.; Streiff, R. R.; Creary, E. A.; Daniels, R. D., Jr.; King, W.; Luchetta, G.; Wiegand, J.; Moerker, T.; Peter, H. H. A Comparative Study of the Iron-Clearing Properties of Desferrithiocin Analogues with Desferrioxamine B in a Cebus Monkey Model. Blood 1993, 81, 2166-2173 and Bergeron, R. J.; Streiff, R. R.; Wiegand, J.; Vinson, J. R. T.; Luchetta, G.; Evans, K. M.; Peter, H.; Jenny, H.-B. A Comparative Evaluation of Iron Clearance Models. […]
Four rats were subjected to bile duct-cannulation as previously described. […] The iron content of the bile and urine were assessed by atomic absorption spectroscopy. Iron clearing efficiency was calculated as set forth elsewhere [Bergeron, R. J.; Wiegand, J.; McManis, J. S.; McCosar, B. H.; Weimar, W. R.; Brittenham, G. M.; Smith, R. E. Effects of C-4 Stereochemistry and C-4′ Hydroxylation on the Iron Clearing Efficiency and Toxicity of Desferrithiocin Analogues. […]

BSA-VIB antigen [2] = assay: Competitive binding ELISA of purified monoclonal antibodies
Protocol: Competitive binding ELISA studies using the purified mAb were conducted. The mAb were first incubated with varying concentrations of the OVA-VIB antigen, from 0-250 μg/mL, prior to being transferred to an ELISA plate that had been coated with the BSA-VIB antigen.
In brief, the polypropylene incubation plate was blocked with 300 μL of blocking buffer (1% BSA in PBS with 0.02% azide) and was allowed to incubate overnight at 4° C. The following day, the blocking buffer was removed (flicked) from the plate, and the plate was blotted on a paper towel. A 96-well ELISA plate was coated with the BSA-VIB antigen (10 μg/mL, 50 μL/well) that had been diluted in PBS with 0.02% azide. After incubating overnight at 4° C., the plate was washed 4 times (300 μL/wash) as described above, blocked with 300 μL of blocking buffer for 1 h, and washed again. […]

BSA-VIB antigen [3] = assay: Competitive binding ELISA of polyclonal serum from immunized mice
Protocol: In the competitive binding ELISA, sera from immunized mice or non-immunized mice were first incubated with potential antigens f-g, or with OVA-VIB, at antigen concentrations ranging from 0-250 μg/mL. If an antigen is an effective competitor, it will bind to the antibody during this initial incubation, leaving less antibody available to bind to a second antigen coated on the ELISA plate. This “competition” will be reflected in lower p-nitrophenol optical density values.
Competitive binding ELISAs were performed on 1) serum from immunized mice that contained polyclonal antibodies, and 2) purified mAb derived from the cloning of 5A6-2D5 and 2F10-1A9. Medium was used as a negative control, while unconjugated OVA (10 μg/mL, 50 μL/well) served as a […] for the competitive binding ELISA of the polyclonal serum (Table 2) and purified mAb (Table 6). Two types of plates were utilized: a conical bottom polypropylene plate was used for the incubation of the antibody-antigen mixture, whereas a 96-well MAXISORP plate (a high protein-binding capacity polystyrene multi-well ELISA plate) was used for the ELISA.
In brief, the polypropylene incubation plate was blocked with 300 μL of blocking buffer (1% BSA in PBS with 0.02% azide) and was allowed to incubate overnight at 4° C. The following day, the blocking buffer was removed (flicked) from the plate, and the plate was blotted on a paper towel. A 96-well ELISA plate was coated with the BSA-VIB antigen (10 μg/mL, 50 μL/well) that had been diluted in PBS with 0.02% azide. After incubating overnight at 4° C., the plate was washed 4 times (300 μL/wash) as described above, blocked with 300 μL of blocking buffer for 1 h, and washed again.
The OVA-VIB antigen was diluted in blocking buffer in micro centrifuge tubes at antigen concentrations ranging from 0-250 μg/mL. The diluted antigens (50 μL/well) were transferred from the micro centrifuge tubes to the polypropylene incubation plate that had been blocked and washed. Fifty microliters of the diluted polyclonal mouse serum (1:10,000 dilution) or mAb (0.11 μg protein/mL) were added to the incubation plate wells containing the diluted OVA-VIB antigen. The polypropylene plate was then incubated on a rocking platform for 2 h at room temperature, allowing time for the antigen-antibody complexes to form.
A portion of the antigen/antibody mixture (50 μL) was transferred from the polypropylene incubation plate to the BSA-VIB-coated ELISA plate that had been blocked and washed. The ELISA plate was incubated with gentle agitation for 1 h at room temperature and was washed 4 times with the EWB. […] The ELISA plate was allowed to incubate with gentle agitation for 1 h at room temperature and was read at 405 nm, tracking the OD of the yellow water-soluble product, p-nitrophenol. […]

[4] = against the BSA-VIB antigen, 10 μg/mL

Chain of BSA-VIB antigen (P02769 25-607): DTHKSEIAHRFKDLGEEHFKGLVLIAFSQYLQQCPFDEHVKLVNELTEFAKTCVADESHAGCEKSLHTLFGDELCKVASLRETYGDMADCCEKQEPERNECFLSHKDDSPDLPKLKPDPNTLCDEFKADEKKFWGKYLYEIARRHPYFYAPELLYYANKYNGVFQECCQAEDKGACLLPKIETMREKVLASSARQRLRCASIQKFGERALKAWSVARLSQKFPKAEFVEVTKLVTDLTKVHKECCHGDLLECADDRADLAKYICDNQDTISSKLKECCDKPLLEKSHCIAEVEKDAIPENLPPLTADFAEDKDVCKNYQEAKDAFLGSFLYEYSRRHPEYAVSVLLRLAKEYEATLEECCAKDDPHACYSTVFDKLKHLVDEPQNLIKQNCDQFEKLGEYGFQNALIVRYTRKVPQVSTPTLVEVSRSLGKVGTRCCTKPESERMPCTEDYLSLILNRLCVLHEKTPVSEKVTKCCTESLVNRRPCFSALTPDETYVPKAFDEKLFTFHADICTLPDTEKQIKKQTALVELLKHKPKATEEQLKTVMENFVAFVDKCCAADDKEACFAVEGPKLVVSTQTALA

Molecule | iron sequestration in vivo (in words) [1] | iron clearing efficiency ([1]; bile and urine collected 48 h) [%] | optical density of mAb incubated with OVA greater than mAb first incubated with OVA-VIB at the same concentration (BSA-VIB antigen [2]; [4]) | effectiveness as competitor (in words) (BSA-VIB antigen [2]; purified mAb, antigen 0-250 μg/mL) | BSA-VIB Antigen: Optical Density at 405 nm (BSA-VIB antigen [3]; M1 serum 1:10,000 incubated with unconjugated OVA 10 μg/mL) | BSA-VIB Antigen: Optical Density at 405 nm (BSA-VIB antigen [3]; M2 serum 1:10,000 incubated with unconjugated OVA 10 μg/mL) | optical density of serum incubated with OVA greater than serum first incubated with OVA-VIB at the same concentration (BSA-VIB antigen [3]; [4]) [%] | effectiveness as competitor (in words) (BSA-VIB antigen [3]; sera from immunized mice, antigen 0-250 μg/mL)
CC1OC(c2cccc(O)c2O)=NC1C(=O)NCCCN(CCCNC(=O)c1cccc(O)c1O)C(=O)C1N=C(c2cccc(O)c2O)OC1C (centres unmarked) [Compound 3, vibriobactin] | found to sequester iron in vivo | 4.3±1.1 |  |  |  |  |  | 
B1 |  |  | approximately 90% | not an effective competitor | 1.152 | 1.655 | 92 | not an effective competitor
